Bridges are numbered along the chain shown (N, C = ends). Where no end group is shown, it is not given here. [ ]: non-standard residue; d: D form. MPEG5000 = polyethyleneglycol of 5000 molecular weight, attached to the N-terminal Cys
B1: SEQ ID NO 35 (peptide)
peptide: [dC]EWLDVC-OH
modifications: disulfide 1-7; N-terminus assumed
SMILES: CC(C)C[C@@H]1NC(=O)[C@H](Cc2c[nH]c3ccccc23)NC(=O)[C@H](CCC(=O)O)NC(=O)[C@H](N)CSSC[C@@H](C(=O)O)NC(=O)[C@H](C(C)C)NC(=O)[C@H](CC(=O)O)NC1=O
notes: Disulfide cyclic peptide; also called dCys-Glu-Trp-Leu-Asp-Val-Cys-acid
B2: SEQ ID NO 36 (peptide)
peptide: CEWLDYC-OH
modifications: disulfide 1-7; N-terminus assumed
SMILES: CC(C)C[C@@H]1NC(=O)[C@H](Cc2c[nH]c3ccccc23)NC(=O)[C@H](CCC(=O)O)NC(=O)[C@@H](N)CSSC[C@@H](C(=O)O)NC(=O)[C@H](Cc2ccc(O)cc2)NC(=O)[C@H](CC(=O)O)NC1=O
notes: Disulfide cyclic peptide; also called Cys-Glu-Trp-Leu-Asp-Tyr-Cys-acid
B3: SEQ ID NO 37 (peptide)
peptide: CSFLDYC-OH
modifications: disulfide 1-7; N-terminus assumed
SMILES: CC(C)C[C@@H]1NC(=O)[C@H](Cc2ccccc2)NC(=O)[C@H](CO)NC(=O)[C@@H](N)CSSC[C@@H](C(=O)O)NC(=O)[C@H](Cc2ccc(O)cc2)NC(=O)[C@H](CC(=O)O)NC1=O
notes: Disulfide cyclic peptide; also called Cys-Ser-Phe-Leu-Asp-Tyr-Cys-acid
B4: SEQ ID NO 38 (peptide)
peptide: CEFLDYC-OH
modifications: disulfide 1-7; N-terminus assumed
SMILES: CC(C)C[C@@H]1NC(=O)[C@H](Cc2ccccc2)NC(=O)[C@H](CCC(=O)O)NC(=O)[C@@H](N)CSSC[C@@H](C(=O)O)NC(=O)[C@H](Cc2ccc(O)cc2)NC(=O)[C@H](CC(=O)O)NC1=O
notes: Disulfide cyclic peptide; also called Cys-Glu-Phe-Leu-Asp-Tyr-Cys-acid
B5: SEQ ID NO 33 (peptide)
peptide: CEWLDVC-NH2
modifications: disulfide 1-7; N-terminus assumed
SMILES: CC(C)C[C@@H]1NC(=O)[C@H](Cc2c[nH]c3ccccc23)NC(=O)[C@H](CCC(=O)O)NC(=O)[C@@H](N)CSSC[C@@H](C(N)=O)NC(=O)[C@H](C(C)C)NC(=O)[C@H](CC(=O)O)NC1=O
notes: Disulfide cyclic peptide; also called Cys-Glu-Trp-Leu-Asp-Val-Cys-amide
B6: SEQ ID NO 34 (peptide)
peptide: CEWLDVC-OH
modifications: disulfide 1-7; N-terminus assumed
SMILES: CC(C)C[C@@H]1NC(=O)[C@H](Cc2c[nH]c3ccccc23)NC(=O)[C@H](CCC(=O)O)NC(=O)[C@@H](N)CSSC[C@@H](C(=O)O)NC(=O)[C@H](C(C)C)NC(=O)[C@H](CC(=O)O)NC1=O
notes: Disulfide cyclic peptide; also called Cys-Glu-Trp-Leu-Asp-Val-Cys-acid
B7: SEQ ID NO 40 (peptide)
peptide: CPEWLDVC-OH
modifications: disulfide 1-8; N-terminus assumed
SMILES: CC(C)C[C@@H]1NC(=O)[C@H](Cc2c[nH]c3ccccc23)NC(=O)[C@H](CCC(=O)O)NC(=O)[C@@H]2CCCN2C(=O)[C@@H](N)CSSC[C@@H](C(=O)O)NC(=O)[C@H](C(C)C)NC(=O)[C@H](CC(=O)O)NC1=O
notes: Disulfide cyclic peptide
B8: SEQ ID NO 41 (peptide)
peptide: MPEG5000-CWLDVC-OH
modifications: disulfide 1-6
notes: Disulfide cyclic peptide; also called MPEG5000-Cys-Trp-Leu-Asp-Val-Cys-acid
B9: SEQ ID NO 16 (peptide)
peptide: CSWLDVC
modifications: disulfide 1-7
notes: Disulfide cyclic peptide; also called Cys-Ser-Trp-Leu-Asp-Val-Cys
B10: SEQ ID NO 31 (peptide)
peptide: CWLDVC-OH
modifications: disulfide 1-6; N-terminus assumed
SMILES: CC(C)C[C@@H]1NC(=O)[C@H](Cc2c[nH]c3ccccc23)NC(=O)[C@@H](N)CSSC[C@@H](C(=O)O)NC(=O)[C@H](C(C)C)NC(=O)[C@H](CC(=O)O)NC1=O
notes: Disulfide cyclic peptide; also called Cys-Trp-Leu-Asp-Val-Cys-acid
B11: SEQ ID NO 3 (peptide)
peptide: cyclo(EWLDVD)
modifications: not fully specified (residue 3)
notes: Head-to-tail cyclic lactam; also called Glu-Trp-Leu-Asp-Val-Asp
B12: SEQ ID NO 18 (peptide)
peptide: Ac-CWLDVC-OH
modifications: disulfide 1-6
SMILES: CC(=O)N[C@H]1CSSC[C@@H](C(=O)O)NC(=O)[C@H](C(C)C)NC(=O)[C@H](CC(=O)O)NC(=O)[C@H](CC(C)C)NC(=O)[C@H](Cc2c[nH]c3ccccc23)NC1=O
notes: Disulfide cyclic peptide; also called Ac-Cys-Trp-Leu-Asp-Val-Cys-acid
B13: SEQ ID NO 25 (peptide)
peptide: CWVDVC-OH
modifications: disulfide 1-6; N-terminus assumed
SMILES: CC(C)[C@@H]1NC(=O)[C@H](CC(=O)O)NC(=O)[C@H](C(C)C)NC(=O)[C@H](Cc2c[nH]c3ccccc23)NC(=O)[C@@H](N)CSSC[C@@H](C(=O)O)NC1=O
notes: Disulfide cyclic peptide; also called Cys-Trp-Val-Asp-Val-Cys-acid
B14: SEQ ID NO 22 (peptide)
peptide: CWLDWC-OH
modifications: disulfide 1-6; N-terminus assumed
SMILES: CC(C)C[C@@H]1NC(=O)[C@H](Cc2c[nH]c3ccccc23)NC(=O)[C@@H](N)CSSC[C@@H](C(=O)O)NC(=O)[C@H](Cc2c[nH]c3ccccc23)NC(=O)[C@H](CC(=O)O)NC1=O
notes: Disulfide cyclic peptide; also called Cys-Trp-Leu-Asp-Trp-Cys-acid
B15: SEQ ID NO 28 (peptide)
peptide: CWLDLC-OH
modifications: disulfide 1-6; N-terminus assumed
SMILES: CC(C)C[C@@H]1NC(=O)[C@H](CC(=O)O)NC(=O)[C@H](CC(C)C)NC(=O)[C@H](Cc2c[nH]c3ccccc23)NC(=O)[C@@H](N)CSSC[C@@H](C(=O)O)NC1=O
notes: Disulfide cyclic peptide; also called Cys-Trp-Leu-Asp-Leu-Cys-acid
B16: SEQ ID NO 23 (peptide)
peptide: CWIDVC-OH
modifications: disulfide 1-6; N-terminus assumed
SMILES: CC[C@H](C)[C@@H]1NC(=O)[C@H](Cc2c[nH]c3ccccc23)NC(=O)[C@@H](N)CSSC[C@@H](C(=O)O)NC(=O)[C@H](C(C)C)NC(=O)[C@H](CC(=O)O)NC1=O
notes: Disulfide cyclic peptide; also called Cys-Trp-Ile-Asp-Val-Cys-acid
B17: SEQ ID NO 20 (peptide)
peptide: CWLDFC-OH
modifications: disulfide 1-6; N-terminus assumed
SMILES: CC(C)C[C@@H]1NC(=O)[C@H](Cc2c[nH]c3ccccc23)NC(=O)[C@@H](N)CSSC[C@@H](C(=O)O)NC(=O)[C@H](Cc2ccccc2)NC(=O)[C@H](CC(=O)O)NC1=O
notes: Disulfide cyclic peptide; also called Cys-Trp-Leu-Asp-Phe-Cys-acid
B18: SEQ ID NO 24 (peptide)
peptide: CWMDVC-OH
modifications: disulfide 1-6; N-terminus assumed
SMILES: CSCC[C@@H]1NC(=O)[C@H](Cc2c[nH]c3ccccc23)NC(=O)[C@@H](N)CSSC[C@@H](C(=O)O)NC(=O)[C@H](C(C)C)NC(=O)[C@H](CC(=O)O)NC1=O
notes: Disulfide cyclic peptide; also called Cys-Trp-Met-Asp-Val-Cys-acid
B19: SEQ ID NO 21 (peptide)
peptide: CFLDVC-OH
modifications: disulfide 1-6; N-terminus assumed
SMILES: CC(C)C[C@@H]1NC(=O)[C@H](Cc2ccccc2)NC(=O)[C@@H](N)CSSC[C@@H](C(=O)O)NC(=O)[C@H](C(C)C)NC(=O)[C@H](CC(=O)O)NC1=O
notes: Disulfide cyclic peptide; also called Cys-Phe-Leu-Asp-Val-Cys-acid
B20: SEQ ID NO 26 (peptide)
peptide: CWKDVC-OH
modifications: disulfide 1-6; N-terminus assumed
SMILES: CC(C)[C@@H]1NC(=O)[C@H](CC(=O)O)NC(=O)[C@H](CCCCN)NC(=O)[C@H](Cc2c[nH]c3ccccc23)NC(=O)[C@@H](N)CSSC[C@@H](C(=O)O)NC1=O
notes: Disulfide cyclic peptide; also called Cys-Trp-Lys-Asp-Val-Cys-acid
B21: SEQ ID NO 29 (peptide)
peptide: CWLDYC-OH
modifications: disulfide 1-6; N-terminus assumed
SMILES: CC(C)C[C@@H]1NC(=O)[C@H](Cc2c[nH]c3ccccc23)NC(=O)[C@@H](N)CSSC[C@@H](C(=O)O)NC(=O)[C@H](Cc2ccc(O)cc2)NC(=O)[C@H](CC(=O)O)NC1=O
notes: Disulfide cyclic peptide; also called Cys-Trp-Leu-Asp-Tyr-Cys-acid
B22: SEQ ID NO 19 (peptide)
peptide: CYLDVC-OH
modifications: disulfide 1-6; N-terminus assumed
SMILES: CC(C)C[C@@H]1NC(=O)[C@H](Cc2ccc(O)cc2)NC(=O)[C@@H](N)CSSC[C@@H](C(=O)O)NC(=O)[C@H](C(C)C)NC(=O)[C@H](CC(=O)O)NC1=O
notes: Disulfide cyclic peptide; also called Cys-Tyr-Leu-Asp-Val-Cys-acid
B23: SEQ ID NO 17 (peptide)
peptide: C[dW]LDVC-OH
modifications: disulfide 1-6; N-terminus assumed
SMILES: CC(C)C[C@@H]1NC(=O)[C@@H](Cc2c[nH]c3ccccc23)NC(=O)[C@@H](N)CSSC[C@@H](C(=O)O)NC(=O)[C@H](C(C)C)NC(=O)[C@H](CC(=O)O)NC1=O
notes: Disulfide cyclic peptide; also called Cys-dTrp-Leu-Asp-Val-Cys-acid
B24: SEQ ID NO 32 (peptide)
peptide: [dC]WLDVC-OH
modifications: disulfide 1-6; N-terminus assumed
SMILES: CC(C)C[C@@H]1NC(=O)[C@H](Cc2c[nH]c3ccccc23)NC(=O)[C@H](N)CSSC[C@@H](C(=O)O)NC(=O)[C@H](C(C)C)NC(=O)[C@H](CC(=O)O)NC1=O
notes: Disulfide cyclic peptide; also called dCys-Trp-Leu-Asp-Val-Cys-acid

molecular target: T1, integrin α4β1 (human, UniProt P13612 34-1032; P05556 21-798); assay: inhibition of HL-60 cell (α4β1) binding to VCAM-IgG coated beads, fluorimetry
T1 construct: whole, on cells; also called VLA-4; very late antigen-4
Experimental: The media was collected and active protein was purified by immunoprecipitation using Dynal magnetic polystyrene beads coated with goat anti-mouse IgG. Following immunoprecipitation, the beads bound cells that expressed the integrin α_4β_1 such as Ramos and HL-60.
HL-60 cells were fluorescently labeled with Calcein AM C-3099 (Molecular Probes) and resuspended in 1 ml of binding buffer (Hank's balanced salt solution, pH 7.4, 1.0 mM CaCl_2, 1.0 mM MgCl_2). The beads (10 µl, 4×10^6 beads/ml) were placed in wells of a 96-well microtiter dish with 10 µl of peptide at various concentrations. The beads were incubated with 10 µl of labeled cells (10^7 cells/ml) for 10 min at room temperature. Following immobilization of the beads onto the plastic with a magnet, unbound cells were removed by washing three times with binding buffer. The remaining bound cells were lysed in 50 mM Tris, pH 7.4, 5.0 mM EDTA, 1.0% NP-40 and quantitated by fluorimetry using a Millipore Cytofluor 2350 fluorimeter. Dose response curves were calculated and IC$50$ values determined. Alternatively, the percent adhesion was determined at a single peptide concentration for comparison among peptides.

T1 sequence (P13612 34-1032, chain 1 of 2): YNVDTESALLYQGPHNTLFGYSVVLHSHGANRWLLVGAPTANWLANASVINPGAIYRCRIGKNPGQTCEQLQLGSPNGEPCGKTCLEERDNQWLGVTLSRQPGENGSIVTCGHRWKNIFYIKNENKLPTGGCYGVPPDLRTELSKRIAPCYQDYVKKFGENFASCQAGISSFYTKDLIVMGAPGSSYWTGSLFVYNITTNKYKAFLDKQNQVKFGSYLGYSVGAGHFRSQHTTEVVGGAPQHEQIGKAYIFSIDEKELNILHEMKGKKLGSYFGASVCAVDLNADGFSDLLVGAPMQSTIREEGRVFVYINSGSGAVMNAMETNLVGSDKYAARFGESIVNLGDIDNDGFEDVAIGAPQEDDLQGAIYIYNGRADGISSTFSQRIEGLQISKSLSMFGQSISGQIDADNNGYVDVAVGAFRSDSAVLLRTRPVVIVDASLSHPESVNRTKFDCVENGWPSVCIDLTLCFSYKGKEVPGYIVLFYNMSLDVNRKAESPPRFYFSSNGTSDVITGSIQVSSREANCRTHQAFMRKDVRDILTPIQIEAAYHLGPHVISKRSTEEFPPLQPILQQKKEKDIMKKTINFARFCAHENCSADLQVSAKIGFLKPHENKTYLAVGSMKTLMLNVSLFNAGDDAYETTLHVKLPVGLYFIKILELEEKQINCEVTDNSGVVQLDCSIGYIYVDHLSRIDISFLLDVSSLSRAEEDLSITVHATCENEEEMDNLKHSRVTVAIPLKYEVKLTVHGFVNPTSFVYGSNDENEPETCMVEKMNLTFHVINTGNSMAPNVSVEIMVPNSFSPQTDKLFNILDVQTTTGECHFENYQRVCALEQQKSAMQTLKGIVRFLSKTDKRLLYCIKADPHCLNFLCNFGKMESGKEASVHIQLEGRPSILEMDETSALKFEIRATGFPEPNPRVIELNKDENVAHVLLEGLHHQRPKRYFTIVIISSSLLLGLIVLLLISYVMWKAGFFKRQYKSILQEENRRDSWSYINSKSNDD
T1 sequence (P05556 21-798, chain 2 of 2): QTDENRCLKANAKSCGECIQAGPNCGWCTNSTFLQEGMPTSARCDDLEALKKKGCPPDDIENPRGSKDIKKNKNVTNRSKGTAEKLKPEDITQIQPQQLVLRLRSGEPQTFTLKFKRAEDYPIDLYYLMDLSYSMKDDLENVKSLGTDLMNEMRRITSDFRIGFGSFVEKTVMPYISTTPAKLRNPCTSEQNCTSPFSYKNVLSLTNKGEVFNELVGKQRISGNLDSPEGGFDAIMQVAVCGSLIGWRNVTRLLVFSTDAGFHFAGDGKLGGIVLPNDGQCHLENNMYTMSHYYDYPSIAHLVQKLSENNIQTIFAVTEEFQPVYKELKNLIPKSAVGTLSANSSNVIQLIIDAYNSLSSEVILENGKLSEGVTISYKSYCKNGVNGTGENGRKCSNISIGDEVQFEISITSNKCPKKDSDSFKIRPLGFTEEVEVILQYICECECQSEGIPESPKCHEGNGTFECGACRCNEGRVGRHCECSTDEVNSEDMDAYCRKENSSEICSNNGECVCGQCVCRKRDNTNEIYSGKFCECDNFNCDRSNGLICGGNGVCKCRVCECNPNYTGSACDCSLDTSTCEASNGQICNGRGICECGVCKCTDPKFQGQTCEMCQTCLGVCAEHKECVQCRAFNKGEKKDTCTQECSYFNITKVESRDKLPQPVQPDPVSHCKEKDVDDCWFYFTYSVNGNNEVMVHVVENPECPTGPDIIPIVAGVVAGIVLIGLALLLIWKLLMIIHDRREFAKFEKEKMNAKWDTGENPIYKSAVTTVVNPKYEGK

Peptide concentration that significantly inhibits binding, < 10 µM:
B1
B2
B3
B4
B5
B6
B7
B8
B9
B10
B11
B12
B13
B14
B15
B16
B17
B18
B19
B20
B21
B22
B23
B24

Source: patent US6713604 (TEXAS BIOTECHNOLOGY, dated 2004)
